Columns and labels:
mfTMPRSS6_S751A-MMH = target: T1, mfTMPRSS6_S751A-MMH (Macaca fascicularis, UniProt Q8IU80 77-811 (human entry)); assay: SPR, mAb captured via anti-hFc, 25 C
T1 construct: also called REGN5977; Macaca fascicularis TMPRSS6 extracellular domain with a S751A mutation and a C-terminal myc-myc-hexahistidine tag
T1 chain: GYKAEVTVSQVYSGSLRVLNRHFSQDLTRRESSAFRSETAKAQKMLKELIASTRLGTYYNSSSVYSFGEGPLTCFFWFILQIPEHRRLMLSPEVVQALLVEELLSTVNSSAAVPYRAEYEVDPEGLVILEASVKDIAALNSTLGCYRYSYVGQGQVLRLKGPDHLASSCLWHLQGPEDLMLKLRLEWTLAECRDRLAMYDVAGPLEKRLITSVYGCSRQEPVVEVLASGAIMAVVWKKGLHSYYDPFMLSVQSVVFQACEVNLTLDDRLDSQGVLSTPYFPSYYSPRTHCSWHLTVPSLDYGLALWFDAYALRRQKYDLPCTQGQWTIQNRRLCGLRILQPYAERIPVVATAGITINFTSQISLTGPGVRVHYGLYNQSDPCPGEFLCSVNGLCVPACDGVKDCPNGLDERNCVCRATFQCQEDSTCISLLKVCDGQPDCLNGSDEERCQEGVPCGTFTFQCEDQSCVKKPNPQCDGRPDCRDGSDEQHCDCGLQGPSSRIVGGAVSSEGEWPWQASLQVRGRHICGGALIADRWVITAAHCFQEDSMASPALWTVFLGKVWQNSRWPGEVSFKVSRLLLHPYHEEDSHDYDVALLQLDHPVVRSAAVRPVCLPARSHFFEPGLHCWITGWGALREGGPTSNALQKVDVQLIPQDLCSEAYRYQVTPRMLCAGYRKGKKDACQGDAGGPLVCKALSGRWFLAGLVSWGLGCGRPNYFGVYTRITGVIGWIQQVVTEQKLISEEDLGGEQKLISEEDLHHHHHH
Procedure: The equilibrium dissociation constant (KD) for TMPRSS6 binding to different TMPRSS6 monoclonal antibodies (mAbs) was determined using a real-time surface plasmon resonance biosensor using a Biacore 4000 instrument. All binding studies were performed in 10 mM HEPES, 150 mM NaCl, 3 mM EDTA, and 0.05% v/v Surfactant Tween-20, pH 7.4 (HBS-ET) running buffer at 25° C. and 37° C. The Biacore CM5 sensor chip surface was first derivatized by amine coupling with a human Fc specific mouse mAb to capture different TMPRSS6 mAbs. […] Different concentrations (100 nM to 3.7 nM, 3-fold serial dilution) of the TMPRSS6 reagent proteins prepared in HBS-EP running buffer were injected over the TMPRSS6 mAb captured surface for 150 seconds at a flow rate of 30 μL/min and their dissociation in HBS-ET running buffer was monitored for 10 minutes. At the end of each cycle, the TMPRSS6 mAb captured surface was regenerated using a 12 second injection of 20 mM phosphoric acid.
The association rate (kₐ) and dissociation rate (kd) were determined by fitting the real-time binding sensorgrams to a 1:1 binding model with mass transport limitation using Scrubber 2.0 (BioLogic Software) curve-fitting software. Binding dissociation equilibrium constant (KD) and dissociative half-life (t½) were calculated from the kinetic rates as: […]

[1] = target: T2, full length cynomolgous monkey TMPRSS6 on HEK293 cells (HEK293/mfTMPRSS6) (cynomolgous monkey/Macaca fascicularis, UniProt Q8IU80 10-811 (human entry)); assay: cell-based or functional assay
T2 chain: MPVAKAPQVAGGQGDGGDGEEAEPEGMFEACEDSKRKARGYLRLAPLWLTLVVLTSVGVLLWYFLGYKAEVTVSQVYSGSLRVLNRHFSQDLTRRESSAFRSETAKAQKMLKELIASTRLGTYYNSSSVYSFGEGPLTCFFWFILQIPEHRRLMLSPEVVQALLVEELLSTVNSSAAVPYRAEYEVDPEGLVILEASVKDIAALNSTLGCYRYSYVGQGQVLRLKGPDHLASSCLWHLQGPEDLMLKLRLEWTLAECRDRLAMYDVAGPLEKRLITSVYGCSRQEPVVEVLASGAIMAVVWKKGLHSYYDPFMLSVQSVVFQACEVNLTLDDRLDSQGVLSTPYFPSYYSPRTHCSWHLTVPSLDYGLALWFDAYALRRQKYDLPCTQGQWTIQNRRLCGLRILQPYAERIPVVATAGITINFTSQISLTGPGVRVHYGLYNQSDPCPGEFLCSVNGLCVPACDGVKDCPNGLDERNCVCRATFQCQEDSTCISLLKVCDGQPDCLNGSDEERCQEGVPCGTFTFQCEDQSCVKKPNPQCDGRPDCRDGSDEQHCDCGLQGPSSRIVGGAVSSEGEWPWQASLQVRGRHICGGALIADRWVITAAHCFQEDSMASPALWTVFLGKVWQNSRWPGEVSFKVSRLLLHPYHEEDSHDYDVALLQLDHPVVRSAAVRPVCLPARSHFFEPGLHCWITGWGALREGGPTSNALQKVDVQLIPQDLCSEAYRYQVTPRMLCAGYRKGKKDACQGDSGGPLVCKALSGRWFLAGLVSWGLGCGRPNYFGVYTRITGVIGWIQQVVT

| Binder | 100 nM Ag Bound (mfTMPRSS6_S751A-MMH) [RU] | Kd (mfTMPRSS6_S751A-MMH) [nM] | koff (mfTMPRSS6_S751A-MMH) [s⁻¹] | kon (mfTMPRSS6_S751A-MMH) [M⁻¹ s⁻¹] | t½ (mfTMPRSS6_S751A-MMH) [h] | % inhibition, HEK293 bioassay, overnight pre-incubation 37 C [1] [%] | IC50, HEK293 bioassay, overnight pre-incubation 37 C [1] [nM] |
| --- | --- | --- | --- | --- | --- | --- | --- |
| REGN7977 (antibody, V domains shown, fully human; human IgG4 Fc with hinge S108P; also called mAb41465) VH: EVQLVESGGGLVKPGGSLRVSCAASGVTFSNVWMSWVRQVPGKGLEWVGRIKSKTDGGTTDYAAPVKGRFTISKDDSKNTLFLQMNSLKTEDTAVYYCTTETGDFWSGYYPRFQHWGQGTLVTVSS VL: DIQMTQSPSSLSASVGDRVTITCRASQYISTYLNWYQQKPGKAPSLLIYAASSLQSGVPSRFSGSGSGTDFTLTISSLQPEDFASYSCQQSYSTPPYTFGQGTKLEIKR | 155 | 3.09 | 0.000697 | 225000 | 0.283 | 81 | > 10 |
| REGN7974 (antibody, human IgG4 S228P, kappa, V domains shown, fully human; human IgG4 Fc with hinge S108P; also called mAb41422) VH: EVQLVESGGGLVQPGRSLRLSCIASGFNFGDYGMSWVRQAPGKGLEWVGFIRSKAYGGTTEYAASVKGRFTISRDDSKSIAYLQMNSLKTEDAAMYYCSRDYYDILTGYYGDYWGQGTLVTVSS VL: not shown | 188 | 7.18 | 0.00192 | 268000 | 0.1 | 31 | > 10 |
| REGN8023 (antibody, human IgG4 S228P, kappa, V domains shown, fully human; human IgG4 Fc with hinge S108P; also called mAb37699) VH: EVQLVESGGGLVKPGGSLRISCAASGFIFVDYAMHWVRQAPGKGLEWVSGISWNSGSIGYADSVKGRFTISRDNAKKSLYLQMSGLRPEDTALYYCVKSGFYYVRSYFDNWGQGTLVTVSS VL: DIVMTQSPLSLPVTPGEPASISCRSSQSLLDSDDGNTYLDWYLRKPGQSPQLLIYTLSYRASGVPDRFSGSGSGTDFTLKISRVEADDVGVYYCMQRIEFPLTFGGGTKVEIKR | 203 | 0.065 | 5.79e-05 | 891000 | 3.32 | 91 | 2.8 |
| REGN7999 (antibody, human IgG4 S228P, kappa, V domains shown, fully human; human IgG4 Fc with hinge S108P; also called mAb41450) VH: EVQLVESGGGLVQPGGSLRLSCAASGFTFSSYAMTWVRQAPGKGLEWVSAISGSDTSTYYADSVKGRFTISRDNSKNTLFLQMNSLRAEDTAVYYCAKHQDYDFSYYYSAMDVWGQGTTVTVSS VL: DIQMTQSPSSLSASVGDRVIITCRASQDFNSWLAWYQQKPGKAPKLLIYAASSLQSGVPSRFSGSGSGTDFTLTISSLQPEDFATYYCQQTDSFPFTFGPGTKVDIKR | 185 | 0.11 | 7.23e-05 | 660000 | 2.67 | 91 | 21 |
| REGN7969 (antibody, human IgG4 S228P, kappa, V domains shown, fully human; human IgG4 Fc with hinge S108P; also called mAb37746) VH: QVQLVESGGGVVQPGRSLRLSCAASGFTFNNYGMHWVRQAPGKGLEWVAIISYDGSNEYYSDSVKGRFTISRDNSKNTLYLQMNSLRAEDTAVYYCARDQDYGGNLFHYWGQGTLVTVSS VL: not shown | 92 | 0.435 | 0.000182 | 419000 | 1.05 | 89 | 13 |
| REGN7971 (antibody, human IgG4 S228P, kappa, V domains shown, fully human; human IgG4 Fc with hinge S108P; also called mAb37763) VH: QVQLVESGGGVVQPGRSLRLSCAASGFTFSTYGMHWVRQAPGKGLEWVAIISYDGSNDYYLDSVKGRFTISRDNSKNTLYLQMNNLRAEDTAVYYCAKDQGYGGNLFASWGQGTLVTVSS VL: not shown | 109 | 0.283 | 0.000138 | 487000 | 1.4 | 89 | 6 |

Reference: US20220411487A1 (Regeneron, published 2022)
